This passage reports fold higher binding than the next group of RAGE binders (AnxII, S100A12, and S100A8/9) results from patent EP1986009A1.

Bounds are passed on as bounds.

This experiment deals with Recombinant human RAGE/Fc chimera (R&D Systems cat. No. 1145-RG) (human). The experiment can be described thus: SPR (Biacore), 200 nM protein over immobilized RAGE/Fc, Req or late association response. For orientation: In SPR one partner is held on a chip, and binding of the other changes the refractive index at the surface.
Chain of Recombinant human RAGE/Fc chimera (R&D Systems cat. No. 1145-RG) (human) (Q15109 23-344, change not shown, form in doubt): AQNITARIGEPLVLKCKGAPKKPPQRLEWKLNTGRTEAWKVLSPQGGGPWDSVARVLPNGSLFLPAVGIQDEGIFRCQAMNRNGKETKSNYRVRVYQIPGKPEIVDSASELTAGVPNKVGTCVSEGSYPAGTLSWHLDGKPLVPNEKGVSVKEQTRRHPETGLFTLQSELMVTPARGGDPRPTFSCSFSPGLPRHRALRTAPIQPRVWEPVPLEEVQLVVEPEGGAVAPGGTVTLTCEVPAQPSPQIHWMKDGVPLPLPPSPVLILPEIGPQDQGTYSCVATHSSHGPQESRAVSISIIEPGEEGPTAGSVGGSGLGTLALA

“Recombinant S100A9, expressed as the full-length sequence of native protein in E. coli (ligand)”: the fold higher binding than the next group of RAGE binders (AnxII, S100A12, and S100A8/9) is greater than 10 fold.
